Patent US20200384079A1, “Compositions of Fibroblast Growth Factor LIgands and Methods of Treating Patients Undergoing Ischemia-Reperfusion Therapy” (University of Cincinnati, priority 2017, published 2020)
“Also recorded” adds a separate entry of the source. Like-named read-outs stand apart in the source and are kept apart here.

B1: FGF1^ΔHBS: FGF1 mutant carrying the K127D/K128Q/K133V triple mutation in its HS-binding region; reduced heparin-binding affinity (protein)
chain: MAEGEITTFTALTEKFNLPPGNYKKPKLLYCSNGGHFLRILPDGTVDGTRDRSDQHIQLQLSAESVGEVYIKSTETGQYLAMDTDGLLYGSQTPNEECLFLERLEENHYNTYISKKHAEKNWFVGLDQNGSCVRGPRTHYGQKAILFLPLPVSSD

Legend:
[1] = rat; for exogenous FGF1 level targeted to the heart: 10 μg/kg i.v.; for tissue and plasma FGF distribution (in words): i.v.
[2] = system: FGFR1; assay: FGFR1 activation (phosphorylation) in left ventricle, immunoblot; set-up: species or system rat; conditions: in vivo, after 15 minutes of treatment
Procedure: One-half of each snap-frozen heart was powdered and homogenized in protein extraction buffer as previously described by our laboratory. For FGFR1, 150 μg of total protein were loaded onto a 8% SDS-PAGE gel, for ERK1/2 activation, 20 μg of whole cell protein homogenate was loaded onto a 15% SDS-PAGE gel, and for PKCα and PKCδ, […] of whole cell protein homogenate was loaded onto a 10% SDS-PAGE gel and then transferred to nitrocellulose membrane. 0.1% Ponceau S in 5% acetic acid was used to examine the transfer efficiency and loading equality as described previously 43. Membranes were blocked with 5% dry milk and then incubated with primary antibody against phospho-FGFR1 (Y-654, 1:500, Cell Signaling), phospho-ERK1/2 (1:1000, Cell Signaling) or phospho-PKCα (1:500, Santa Cruz) or phospho-PKCδ (1:500, Santa Cruz) followed by incubation with HRP-conjugated secondary goat anti-rabbit antibody (1:3000, Santa Cruz Biotechnology). […]
Construction of his-tagged native and heparin-binding modified rhFGFs as well as their expression and purification is performed as previously described using his-tagged expression vectors and nickel-nitrilotriacetic acid resin columns. […] His-tagged FGFs are detected in solid organs by ELISA (FIG. 14) both for FGF and histidine (data not shown), and immunoprecipitation (IP) followed by immunoblot and in plasma by ELISA as described previously. […]

[3] = Blood clotting time (tail nick); format: in vivo, rat; conditions: for Clotting time: 15 mins post treatment, single agent; for blood clotting time post-treatment (in words): baseline vs 15 minutes after drug treatment; for effect on anticoagulant activity of heparin (in words): co-administered with unfractionated heparin
Procedure: In sets of experiments, blood clotting time was detected at baseline and 15 minutes after drug treatment. In brief, a nick 1-2 mm depth was made at 5 cm and 3 cm of the proximal tail for baseline and post-drug blood clotting time, respectively; the tail nick was blotted with 4×4 gauze every 15 seconds until bleeding totally stopped, and blood clotting time was recorded from the onset of bleeding until it stopped.
Heparan sulfate proteoglycans or heparin regulates the bioavailability of FGFs. In order to develop a “cardioprotective” FGF as a therapeutic against ischemic heart disease, it was necessary to elucidate the efficacy of these cardiac FGFs in the presence of heparin treatment. Therefore, native rhFGFs (FGF 1, 2, 4, or 5) or vehicle are infused intravenously (at dose indicated above) in conjunction with unfractionated (12 units/kg/hr, i.v.) or low molecular weight heparin (enoxaparin 1 mg·kg, s.c.) during the first 15 minutes of reperfusion (FIG. 12A), and post-ischemic recovery of cardiac function and the degree of myocardial infarction is assessed. […] Unfractionated or low molecular weight heparin is administered alone during early reperfusion to elucidate the cardioprotective effects of heparins against IR injury. Whether FGF administration alters heparin activity is evaluated. To assess this potential interaction, activated clotting time (ACT) is assessed in vehicle-treated or FGF-treated groups in the absence or presence of heparin co-administration. Baseline and 15 minute post-drug treatment ACT is determined. It has been established that a heparin response occurs within 1 minute after an intravenous dose in humans and that no more time is required to achieve a predicted ACT.

[4] = ITC of FGF interaction with Sucrose Octasulfate (SOS); format: binding
Text: FIGS. 1A-1D: Structure-guided design of the FGF1^ΔHBS construct. (FIG. 1A) Expanded view of the hydrogen bonding interactions (dashed lines) between the HS-binding site of FGF2 and heparin hexasaccharide as observed in the crystal structure. FGF2 is shown as a ribbon diagram with HS-interacting residues rendered in sticks. The three FGF2 residues namely, K128, R129 and K134 that make important hydrogen bonding with HS are boxed. The corresponding three residues in FGF1 are K127, K128 and K133 which were mutated to aspartic acid, glutamine and valine, respectively, to engineer the FGF1ΔHBS construct; (FIG. 1B) FGF1^ΔHBS elutes as a single symmetric peak at its predicted molecular weight from a Superdex 200 sizing column. Retention times of protein standards are given above the chromatogram. (FIG. 1C and FIG. 1D) Analysis of the interactions of wildtype FGF1 and FGF1^ΔHBS with SOS. Indicated solutions of SOS were injected into solutions of wildtype FGF1 or FGF1ΔHBS in the cell. […]
To test the impact of the mutations on HS-binding ability of FGF1, isothermal titration calorimetry (ITC) was used to compare the interactions of native FGF1 and FGF1^ΔHBS with Sucrose Octasulfate (SOS), a known surrogate for HS. […] Next, the cardioprotective potential of FGF1^ΔHBS mutant when administered immediately upon reperfusion was evaluated in an in vivo rat model of myocardial infarction. […]

Molecule	exogenous FGF1 level targeted to the heart ([1]; no heparin)	tissue and plasma FGF distribution (in words) ([1]; FGF with heparin co-administration)	tissue and plasma FGF distribution (in words) ([1]; no FGF+heparin co-treatment)	FGFR1 activation (phosphorylation, Y-654) in left ventricle (in words) [2]	Clotting time [3]	blood clotting time post-treatment (in words) [3]	effect on anticoagulant activity of heparin (in words) [3]	Kd [4]	exogenous FGF1 level targeted to the heart ([1]; with heparin administration)	binding to SOS (in words) [4]
FGF1: native recombinant human fibroblast growth factor 1	2282 ± 97 µg/mL	significantly decreased in kidney, spleen, heart, liver and plasma	distributed to kidney, spleen, heart, liver, and plasma, while less went to lung and skeletal muscle	elevated	15 mins post rhFGF1 treatment: 144 +/− 21 sec (n = 7)	no significant difference in blood clotting time	does not alter the desired anticoagulant activity of heparin; also recorded: did not alter heparin's anticoagulant properties	4 µM	–	–
B1	3073 ± 101 µg/mL	–	mainly went to the heart including atria, left ventricle, and right ventricle; also recorded: greater biodistribution of FGF1^ΔHBS to the left ventricle compared to native FGF1	elevated	15 mins post rhFGF^ΔHBS treatment: 169 +/− 10 sec (n = 10)	no significant difference in blood clotting time	did not alter heparin's anticoagulant properties	–	4336 ± 775 µg/mL	negligible; also recorded: fails to bind SOS
